Common to all, as to test: purified protein
Substrate in data set [1]: C[C@H](N)c1ccccc1
The settings on record: amino donor, full reaction with 2.5 mM 2-OOA as acceptor, pH 7, 45 °C.

Substrate in data set [2]: COC(=O)CC(C)=O
The note with it: amino acceptor, 10 mM 1-PEA as donor, pH 7, 45 °C, highest concentration tested 20 mM.

Substrate in data set [3]: CCCCCCC(=O)C(=O)O
The note with it: amino acceptor, 10 mM 1-PEA as donor, pH 7, 45 °C.

B1: CV_TA (Chromobacterium violaceum DSM30191 transaminase; ω-TA) (Chromobacterium violaceum ATCC 12472) (protein)
chain: MQKQRTTSQWRELDAAHHLHPFTDTASLNQAGARVMTRGEGVYLWDSEGNKIIDGMAGLWCVNVGYGRKDFAEAARRQMEELPFYNTFFKTTHPAVVELSSLLAEVTPAGFDRVFYTNSGSESVDTMIRMVRRYWDVQGKPEKKTLIGRWNGYHGSTIGGASLGGMKYMHEQGDLPIPGMAHIEQPWWYKHGKDMTPDEFGVVAARWLEEKILEIGADKVAAFVGEPIQGAGGVIVPPATYWPEIERICRKYDVLLVADEVICGFGRTGEWFGHQHFGFQPDLFTAAKGLSSGYLPIGAVFVGKRVAEGLIAGGDFNHGFTYSGHPVCAAVAHANVAALRDEGIVQRVKDDIGPYMQKRWRETFSRFEHVDDVRGVGMVQAFTLVKNKAKRELFPDFGEIGTLCRDIFFRNNLIMRACGDHIVSAPPLVMTRAEVDEMLAVAERCLEEFEQTLKARGLA
For orientation: Km means the concentration of substrate that gives half-maximal velocity. The kcat is the number of substrate molecules converted per active site and unit of time at saturation. In general, kcat/Km refers to the second-order rate constant that governs catalysis at low substrate concentration. Regarding B1, the Km is 2600 ± 630 µM in data set [1], 18800 ± 5000 µM in data set [2] and 400 ± 150 µM in data set [3]. Besides, the kcat in data set [2] is 0.155 ± 0.0117 s⁻¹; in data set [3], 0.412 ± 0.0733 s⁻¹. Moreover, the values for the kcat/Km in data set [2] and in data set [3] were 8.33 M⁻¹ s⁻¹ and 1030 M⁻¹ s⁻¹, respectively.

These data come from publication PMC6255834, “Single point mutations reveal amino acid residues important for Chromobacterium violaceum transaminase activity in the production of unnatural amino acids” (Scientific Reports, 2018).
